# US12404345B2, “Humanized antibodies against iRHOM2” (SCIRHOM GMBH, priority 2021, dated 2025)
# Positions count from the first letter of the chain named.
# B1: 16-B-03: humanized antibody binding human iRhom2; HCVD SEQ ID NO 1, LCVD SEQ ID NO 5 (antibody, V domains shown)
# VH: QVTLRESGPALVKPTQTLTLTCTFSGFSLSTFALGVGWIRQPPGKALEWLAHIWWDDDKYYNPALKSRLTISKDTSKNQVVLTITNMDPVDTATYYCARITTYYYGMDYWGQGTLVTVSS
# VL: EIVMTQSPDFQSVTPKEKVTITCRASQSIGNHLHWYQQKPDASPKLLIKYASQSISGVPSRFSGSGSGTDFTLTINSLEAEDAATYFCQQSYQWPLTFGQGTKLEIK
# modifications: antibody sequences
# B2: 16-B-05: humanized antibody binding human iRhom2; HCVD SEQ ID NO 9, LCVD SEQ ID NO 13 (antibody, V domains shown)
# VH: B1 VH with D57E
# VL: B1 VL with Q93N
# modifications: antibody sequences
# B3: 16-B-07: humanized antibody binding human iRhom2; HCVD SEQ ID NO 17, LCVD SEQ ID NO 21 (antibody, V domains shown)
# VH: B1 VH with D57E
# VL: B1 VL
# modifications: antibody sequences
# B4: 23-B-04: humanized antibody binding human iRhom2; HCVD SEQ ID NO 25, LCVD SEQ ID NO 29 (antibody, V domains shown)
# VH: QVTLRESGPALVKPTQTLTLTCTFSGFSLSTFGMGVGWIRQPPGKALEWLAHIWWDDEKYYNSALKSRLTISKDTSKNQVVLTITNMDPVDTATYYCARISNYGSNYWYFNVWGQGTLVTVSS
# VL: AIQLTQSPSSLSASVGDRVTITCRASSSVSYMYWYQQKPGKAPKVLIYDTSNLASGVPSRFSGSGSGTDYTLTISSLQPEDFATYYCQQWNAYPLTFGQGTKLEIK
# modifications: antibody sequences
# B5: 42-B-04: humanized antibody binding human iRhom2; HCVD SEQ ID NO 41, LCVD SEQ ID NO 45 (antibody, V domains shown)
# VH: B4 VH with M34R, S101Q, N111D
# VL: B4 VL with S28R, V29I, Y33F
# modifications: antibody sequences
# B6: 42-B-02: humanized antibody binding human iRhom2; HCVD SEQ ID NO 33, LCVD SEQ ID NO 37 (antibody, V domains shown)
# VH: B4 VH with M34R, S101Q, N111D
# VL: B4 VL with S28R, V29I, Y33F, A92S
# modifications: antibody sequences
# Molecular target: T1, dog iRhom2 (Canis lupus familiaris, UniProt Q00M95)
# T1 construct: pMSCV-dog-iR2-FL-WT-T7 encoding dog iRhom2 full length wild type; expressed in transfected cells; host or cells: immortalized iRhom1/2-/- DKO mouse embryonic fibroblasts, pMSCV retroviral infection
# T1 sequence (Q00M95 1-827): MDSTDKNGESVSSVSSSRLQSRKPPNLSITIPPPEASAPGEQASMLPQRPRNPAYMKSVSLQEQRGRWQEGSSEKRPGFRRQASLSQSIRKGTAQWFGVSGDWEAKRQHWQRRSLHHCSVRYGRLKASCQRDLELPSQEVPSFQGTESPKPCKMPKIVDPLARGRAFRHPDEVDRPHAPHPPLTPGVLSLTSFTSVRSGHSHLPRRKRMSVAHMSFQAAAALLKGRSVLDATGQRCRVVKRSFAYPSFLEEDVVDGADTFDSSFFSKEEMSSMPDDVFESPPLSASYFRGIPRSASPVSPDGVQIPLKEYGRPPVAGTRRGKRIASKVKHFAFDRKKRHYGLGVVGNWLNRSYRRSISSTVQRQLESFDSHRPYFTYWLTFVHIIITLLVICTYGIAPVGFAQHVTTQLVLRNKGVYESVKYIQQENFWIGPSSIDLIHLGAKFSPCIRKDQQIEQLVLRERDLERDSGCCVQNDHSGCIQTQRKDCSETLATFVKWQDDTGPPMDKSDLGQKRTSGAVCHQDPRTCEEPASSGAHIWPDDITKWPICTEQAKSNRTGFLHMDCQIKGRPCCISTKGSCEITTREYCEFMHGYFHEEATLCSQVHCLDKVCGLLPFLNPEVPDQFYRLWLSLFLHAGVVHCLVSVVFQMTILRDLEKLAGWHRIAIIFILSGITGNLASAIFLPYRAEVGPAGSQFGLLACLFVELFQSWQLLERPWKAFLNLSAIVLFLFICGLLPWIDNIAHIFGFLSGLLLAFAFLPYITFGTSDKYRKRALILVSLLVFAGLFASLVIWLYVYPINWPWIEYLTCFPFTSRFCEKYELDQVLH
# Experiment: FACS cross-reactivity on MEF-DKO-Dog-iR2-FL-WT-T7 cells
# Type: binding
# Settings: antibody at 3 μg/ml
# Description: (§1) Next, iRhom1/2−/− DKO MEFs stably expressing a tagged form of rhesus monkey, cynomolgus monkey, dog or rabbit iRhom2 were generated in order to determine cross-reactivity of the antibodies of the invention with the respective orthologue of iRhom2. iRhom1/2−/− DKO MEFs stably expressing a tagged form of rhesus monkey, cynomolgus monkey, dog or rabbit iRhom1 were generated to confirm specificity for iRhom2 versus iRhom1 of these species.
# (§2) In brief, on day 1, Phoenix-ECO cells (American Type Culture Collection, USA) were seeded on 6-well tissue culture plates (Greiner, Germany) in standard growth medium at 8×10^5 cells per well and kept overnight at 37° C., 5% CO2. On day 2, the medium was replaced by fresh medium supplemented with chloroquine (Sigma-Aldrich, USA) at a final concentration of 25 μM. Applying the calcium phosphate method, cells were transfected with 2 μg/ml of pMSCV (Clontech, USA) empty vector, pMSCV-rhesus-iR2-FL-WT-T7 encoding rhesus monkey iRhom2 full length wild type C-terminally tagged with 3 consecutive copies of the T7 epitope, pMSCV-cyno-iR2-FL-WT-T7 encoding cynomolgus monkey iRhom2 full length wild type C-terminally tagged with 3 consecutive copies of the T7 epitope, pMSCV-dog-iR2-FL-WT-T7 encoding dog iRhom2 full length wild type C-terminally tagged with 3 consecutive copies of the T7 epitope or pMSCV-rabbit-iR2-FL-WT-T7 encoding rabbit iRhom2 full length wild type C-terminally tagged with 3 consecutive copies of the T7 epitope, respectively, and were kept at 37° C., 5% CO2. After 7 hours, the transfections were stopped by replacing cell supernatants with standard growth medium lacking chloroquine, and cells were incubated at 37° C., 5% CO2 to allow virus production overnight. In parallel, immortalized iRhom1/2−/− DKO MEFs as target cells for retroviral infection were seeded on 6-well tissue culture plates (Greiner, Germany) in standard growth medium at 1×10^5 cells per well and were also kept overnight at 37° C., 5% CO2. On day 3, the supernatants of Phoenix-ECO cells releasing pMSCV, pMSCV-rhesus-iR2-FL-WT-T7, pMSCV-cyno-iR2-FL-WT-T7, pMSCV-dog-iR2-FL-WT-T7 or pMSCV-rabbit-iR2-FL-WT-T7 ecotrophic virus, respectively were collected, filtered with 0.45 μm CA filters, and supplemented with 4 μg/ml of polybrene (Sigma-Aldrich, USA). Upon removal of medium from the immortalized iRhom1/2−/− DKO MEFs, the virus containing supernatants were added to the target cells for 4 hours at 37° C., 5% CO2 for first infection. Simultaneously, Phoenix-ECO cells were re-incubated with fresh medium, which, after another 4 hours, was filtered and used for the second infection of the respective target cell populations, again in the presence of 4 μg/ml of polybrene. Likewise, a third, but overnight infection cycle was performed. On day 4, virus containing cell supernatants were replaced by fresh standard growth medium. From day 5 onwards, cells were grown in the presence of 2 mg/ml of geneticin (G418, Thermo Fisher Scientific, USA) for the selection of immortalized MEF-DKO-EV control cells stably infected with pMSCV empty vector, pMSCV-rhesus-iR2-FL-WT-T7 cells stably expressing rhesus monkey iRhom2 full length wild type C-terminally tagged with 3 consecutive copies of the T7 epitope, pMSCV-cyno-iR2-FL-WT-T7 cells stably expressing cynomolgus monkey iRhom2 full length wild type C-terminally tagged with 3 consecutive copies of the T7 epitope, pMSCV-dog-iR2-FL-WT-T7 cells stably expressing dog iRhom2 full length wild type C-terminally tagged with 3 consecutive copies of the T7 epitope or pMSCV-rabbit-iR2-FL-WT-T7 cells stably expressing rabbit iRhom2 full length wild type C-terminally tagged with 3 consecutive copies of the T7 epitope, respectively. Upon propagation, cells were stocked for future usage. In parallel, iRhom1/2−/− DKO MEFs stably expressing a tagged form of rhesus monkey, cynomolgus monkey, dog or rabbit iRhom1 were generated in an analogous manner. […]
row,Molecule,binding to dog iRhom2 on MEF-DKO-Dog-iR2-FL-WT-T7 cells
1,B1,Strong binding
2,B2,recognize dog iRhom2
3,B3,recognize dog iRhom2
4,B4,recognize dog iRhom2
5,B5,recognize dog iRhom2
6,B6,recognize dog iRhom2

# Tested on: dog iRhom1
# Experiment: FACS binding on MEF-DKO-Dog-iR1-FL-WT-T7 cells
# Settings: antibody at 3 μg/ml
# Description: as §1, §2
row,Molecule,binding to dog iRhom1 on MEF-DKO-Dog-iR1-FL-WT-T7 cells
1,B1,no significant binding
2,B2,do not recognize dog iRhom1
3,B3,do not recognize dog iRhom1
4,B4,do not recognize dog iRhom1
5,B5,do not recognize dog iRhom1
6,B6,do not recognize dog iRhom1
